The record followed here is paper PMC8143792, “Sec17/Sec18 can support membrane fusion without help from completion of SNARE zippering” (eLife, 2021).

T1: Qa (Vam3), full-length (Saccharomyces cerevisiae, UniProt Q12241 1-283)
T1 construct: Vam3, the vacuolar Qa-SNARE of Saccharomyces cerevisiae, full length with its transmembrane anchor; whether GST was removed is told only in the cited work; also called GST-Qa (Vam3); source: E. coli, purified
T1 sequence (looked up): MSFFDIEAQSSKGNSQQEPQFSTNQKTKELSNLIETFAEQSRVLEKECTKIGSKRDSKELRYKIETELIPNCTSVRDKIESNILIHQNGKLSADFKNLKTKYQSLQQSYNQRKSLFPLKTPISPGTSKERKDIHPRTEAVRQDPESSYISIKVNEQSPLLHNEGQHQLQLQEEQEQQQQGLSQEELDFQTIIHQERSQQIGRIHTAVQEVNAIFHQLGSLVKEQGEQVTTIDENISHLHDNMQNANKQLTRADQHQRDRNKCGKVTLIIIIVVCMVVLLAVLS

B1: sQb3Δ, soluble Qb (Vti1) with amino acyl residues 1–160 (domain or fragment, Saccharomyces cerevisiae, UniProt Q04338 1-160, looked up)
chain: MSSLLISYESDFKTTLEQAKASLAEAPSQPLSQRNTTLKHVEQQQDELFDLLDQMDVEVNNSIGDASERATYKAKLREWKKTIQSDIKRPLQSLVDSGDRDRLFGDLNASNIDDDQRQQLLSNHAILQKSGDRLKDASRIANETEGIGSQIMMDLRSQRE
notes: Vti1 of Saccharomyces cerevisiae, residues 1-160; lacks the regions C-terminal to the +3 layer of the SNARE domain; also called GST-sQb3Δ; GST-Qb (Vti1)3Δ; source: E. coli Rosetta2 (DE3)-pLysS, purified (glutathione agarose), GST tag removed by TEV protease
B2: Qb (Vti1), full-length (natural protein, Saccharomyces cerevisiae, UniProt Q04338 1-217, looked up)
chain: MSSLLISYESDFKTTLEQAKASLAEAPSQPLSQRNTTLKHVEQQQDELFDLLDQMDVEVNNSIGDASERATYKAKLREWKKTIQSDIKRPLQSLVDSGDRDRLFGDLNASNIDDDQRQQLLSNHAILQKSGDRLKDASRIANETEGIGSQIMMDLRSQRETLENARQTLFQADSYVDKSIKTLKTMTRRLVANKFISYAIIAVLILLILLVLFSKFK
notes: Vti1, the vacuolar Qb-SNARE of Saccharomyces cerevisiae, full length with its transmembrane anchor; whether GST was removed is told only in the cited work; also called GST-Qb (Vti1); source: E. coli, purified
B3: sQa3Δ, soluble Qa (Vam3) with amino acyl residues 1–235 (domain or fragment, Saccharomyces cerevisiae, UniProt Q12241 1-235, looked up)
chain: MSFFDIEAQSSKGNSQQEPQFSTNQKTKELSNLIETFAEQSRVLEKECTKIGSKRDSKELRYKIETELIPNCTSVRDKIESNILIHQNGKLSADFKNLKTKYQSLQQSYNQRKSLFPLKTPISPGTSKERKDIHPRTEAVRQDPESSYISIKVNEQSPLLHNEGQHQLQLQEEQEQQQQGLSQEELDFQTIIHQERSQQIGRIHTAVQEVNAIFHQLGSLVKEQGEQVTTIDENI
notes: Vam3 of Saccharomyces cerevisiae, residues 1-235; lacks the regions C-terminal to the +3 layer of the SNARE domain; also called GST-sQa3Δ; GST-Qa (Vam3)3Δ; source: E. coli Rosetta2 (DE3)-pLysS, purified (glutathione agarose), GST tag removed by TEV protease
B4: his6-R (Nyv1), full-length R-SNARE with a 6his-tag on its N-terminus (natural protein, Saccharomyces cerevisiae, UniProt Q12255 1-253, looked up)
chain: MKRFNVSYVEVIKNGETISSCFQPFQKNENYGTITSANEQITPVIFHNLIMDMVLPKVVPIKGNKVTKMSMNLIDGFDCFYSTDDHDPKTVYVCFTLVDMPKILPIRILSGLQEYESNATNELLSSHVGQILDSFHEELVEYRNQTLNSSGNGQSSNGNGQNTISDIGDATEDQIKDVIQIMNDNIDKFLERQERVSLLVDKTSQLNSSSNKFRRKAVNIKEIMWWQKVKNITLLTFTIILFVSAAFMFFYLW
notes: Nyv1, the vacuolar R-SNARE of Saccharomyces cerevisiae, full length with its membrane anchor; construct as in the cited work (PMID:22174414); also called His-R (Nyv1); source: E. coli, purified; not shown: His6, N-terminal, kept

The target of assay [1] is B4. The experiment in a line: pull-down; his6-R held on nickel-NTA agarose; 2.5 µM of each SNARE (R and three Q-SNAREs mixed), Buffer 151 (20 mM HEPES-NaOH, pH 7.4, 150 mM NaCl, 10% glycerol, 1% ß-OG, 20 mM imidazole), 4°C, 2 hr then 1 hr on beads; immunoblot. Particulars: both partners purified. Background: Immunoblotting shows a protein as a band on a membrane.
Another assay deals with T1, Qa (Vam3), full-length. The assay is described as above. The conditions noted are these: both partners purified.

For the molecule B1, the binding result in assay [1] is “binds”. Same read-out and setting: to B2 belongs “binds”; to B3, “binds”. Take B4: in the assay with Qa (Vam3), full-length, the binding result is “binds”.
